Measured values: paper PMC2045677, “Thyroid hormone receptor orthologues from invertebrate species with emphasis on Schistosoma mansoni”

Key:
SmTRα(Gln182-Ala288) = SmTRα(Gln182-Ala288) (Schistosoma mansoni, UniProt Q2TUU7 182-288); assay: EMSA; monomer or homodimer; cold self competes; EMSA on ice 40 min, 15 µl with 3 µl 5x buffer (5x: 20% glycerol, 5 mM MgCl2, 2.5 mM EDTA, 2.5 mM DTT, 250 mM NaCl, 50 mM Tris-HCl pH 7.5, 0.25 mg/ml poly(dI-dC)); 6% native gel, 1x TBE, 4°C; conditions: protein: ivt; tags: none stated (pCITE-4a); label: 32P; blunt
SmTRα = molecular target: T1, SmTRα (Schistosoma mansoni, UniProt Q2TUU7 1-1115); assay: EMSA; monomer or homodimer; EMSA on ice 40 min, 15 µl with 3 µl 5x buffer (5x: 20% glycerol, 5 mM MgCl2, 2.5 mM EDTA, 2.5 mM DTT, 250 mM NaCl, 50 mM Tris-HCl pH 7.5, 0.25 mg/ml poly(dI-dC)); 6% native gel, 1x TBE, 4°C; conditions: protein: ivt; tags: none stated (pCITE-4a); label: 32P; blunt
T1 sequence: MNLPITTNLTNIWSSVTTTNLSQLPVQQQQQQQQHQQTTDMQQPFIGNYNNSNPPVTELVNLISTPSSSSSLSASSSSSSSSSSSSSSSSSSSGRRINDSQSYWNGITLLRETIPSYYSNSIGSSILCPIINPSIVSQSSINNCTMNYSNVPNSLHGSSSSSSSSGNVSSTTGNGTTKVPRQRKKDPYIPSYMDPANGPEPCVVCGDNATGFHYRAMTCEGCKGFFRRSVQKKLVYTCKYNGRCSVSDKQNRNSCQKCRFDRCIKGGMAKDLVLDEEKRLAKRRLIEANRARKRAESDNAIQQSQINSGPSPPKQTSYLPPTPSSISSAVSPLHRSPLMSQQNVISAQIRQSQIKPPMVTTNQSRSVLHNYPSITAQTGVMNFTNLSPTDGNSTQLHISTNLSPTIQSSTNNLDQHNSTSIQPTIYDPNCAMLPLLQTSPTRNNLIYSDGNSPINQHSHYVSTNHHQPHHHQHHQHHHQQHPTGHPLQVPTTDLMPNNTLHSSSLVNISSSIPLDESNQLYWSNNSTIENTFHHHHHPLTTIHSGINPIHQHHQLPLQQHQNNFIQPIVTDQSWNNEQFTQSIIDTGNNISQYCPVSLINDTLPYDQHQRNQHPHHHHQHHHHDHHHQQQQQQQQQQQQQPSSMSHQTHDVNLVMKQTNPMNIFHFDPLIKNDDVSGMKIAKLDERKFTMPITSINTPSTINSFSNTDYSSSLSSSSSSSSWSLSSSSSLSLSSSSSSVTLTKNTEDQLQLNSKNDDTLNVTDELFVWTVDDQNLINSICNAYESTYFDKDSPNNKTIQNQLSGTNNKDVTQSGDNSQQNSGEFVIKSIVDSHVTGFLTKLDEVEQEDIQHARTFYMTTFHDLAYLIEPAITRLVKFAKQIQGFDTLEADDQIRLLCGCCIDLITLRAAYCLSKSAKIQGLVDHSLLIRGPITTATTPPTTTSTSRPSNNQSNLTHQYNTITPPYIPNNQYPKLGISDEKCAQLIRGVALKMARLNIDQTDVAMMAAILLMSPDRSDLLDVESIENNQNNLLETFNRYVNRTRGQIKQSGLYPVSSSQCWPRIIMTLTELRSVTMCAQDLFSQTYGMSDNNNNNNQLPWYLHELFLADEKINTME

B1: half-site (dsDNA)
DNA 1: GTACCGTAAGGTCACTCGCGT
DNA 2: ACGCGAGTGACCTTACGGTAC
binding result (SmTRα(Gln182-Ala288)): binds
binding result (SmTRα): binds

B2: DR0 (dsDNA)
DNA 1: CCGTAAGGTCAAGGTCACTCG
DNA 2: CGAGTGACCTTGACCTTACGG
binding result (SmTRα(Gln182-Ala288)): binds
binding result (SmTRα): binds

B3: DR1 (dsDNA)
DNA 1: CCGTAAGGTCACAGGTCACTCG
DNA 2: CGAGTGACCTGTGACCTTACGG
binding result (SmTRα(Gln182-Ala288)): binds
binding result (SmTRα): binds

B4: DR2 (dsDNA)
DNA 1: CCGTAAGGTCACAAGGTCACTCG
DNA 2: CGAGTGACCTTGTGACCTTACGG
binding result (SmTRα(Gln182-Ala288)): binds
binding result (SmTRα): binds

B5: DR3 (dsDNA)
DNA 1: CCGTAAGGTCACAGAGGTCACTCG
DNA 2: CGAGTGACCTCTGTGACCTTACGG
binding result (SmTRα(Gln182-Ala288)): binds
binding result (SmTRα): binds

B6: DR4 (dsDNA)
DNA 1: CCGTAAGGTCACAGGAGGTCACTCG
DNA 2: CGAGTGACCTCCTGTGACCTTACGG
binding result (SmTRα(Gln182-Ala288)): binds
binding result (SmTRα): binds

B7: DR5 (dsDNA)
DNA 1: CCGTAAGGTCACCAGGAGGTCACTCG
DNA 2: CGAGTGACCTCCTGGTGACCTTACGG
binding result (SmTRα(Gln182-Ala288)): binds
binding result (SmTRα): binds

B8: Pal0 (dsDNA)
DNA 1: CGCAAGGTCATGACCTCG
DNA 2: CGAGGTCATGACCTTGCG
binding result (SmTRα(Gln182-Ala288)): binds
binding result (SmTRα): binds
